Reference: patent US20180264108A1 (ENCARE BIOTECH B V, published 2018)
Positions count from the first letter of the chain named. One block for each binder: values may come before it.

How the values were obtained:
Test in all cases: PEPSCAN ELISA, peptide on card, alanine scan
[1] = target: T1, peptide TYSSPEDAIHELFP
T1 construct: Alanine-scan peptide on a PEPSCAN card; also called replaced amino acid G
T1 peptide: TYSSPEDAIHELFP

[2] = target: T2, peptide TYSSPEDGAHELFP
T2 construct: Alanine-scan peptide on a PEPSCAN card; also called replaced amino acid I
T2 peptide: TYSSPEDGAHELFP

[3] = target: T3, peptide TYSSPEDGIHELAP
T3 construct: Alanine-scan peptide on a PEPSCAN card; also called replaced amino acid F
T3 peptide: TYSSPEDGIHELAP

[4] = target: T4, peptide TYSSPEDGIHEAFP
T4 construct: Alanine-scan peptide on a PEPSCAN card; also called replaced amino acid L
T4 peptide: TYSSPEDGIHEAFP

- Antibody binding (arbitrary optical density units) [1]: 89 arbitrary optical density units
- Antibody binding (arbitrary optical density units) [2]: 66 arbitrary optical density units
- Antibody binding (arbitrary optical density units) [3]: 106 arbitrary optical density units
B1: antibody 17G8.72 (antibody, V domains shown)
VH: DVQLQESGPDLVKPSQSLSLTCTVTGYSIASGYSWHWIRQFPGNKLEWMGYIHFSGSANYNPSLKSRISITRDTSKNQFFLQLNSVTTEDTATYYCASEARGYFDYWGQGTTLTVSS
VL: DVLMTQTPLSLPVSLGDQASISCRSSQSIVRSNGNTYLTWYLQKPGQSPKLLIYKVSNRFSGVPDRFSGSGSGTDFTLKISRVEAEDLGVYFCFQGSHVPPTFGSGTKLEIKR

- Antibody binding (arbitrary optical density units) [1]: 122 arbitrary optical density units
- Antibody binding (arbitrary optical density units) [2]: 91 arbitrary optical density units
- Antibody binding (arbitrary optical density units) [3]: 249 arbitrary optical density units
B2: antibody 27A12.70 (antibody, V domains shown)
VH: B1 VH with A30T, F54Y, S57I, Q78H, S98T, A100K, R101T, Y103F
VL: B1 VL with L3V, I29L, R31H, T39H, F94S, G96S, S97A, S105G

- Antibody binding (arbitrary optical density units) [1]: 81 arbitrary optical density units
- Antibody binding (arbitrary optical density units) [2]: 74 arbitrary optical density units
- Antibody binding (arbitrary optical density units) [4]: 194 arbitrary optical density units
- Antibody binding (arbitrary optical density units) [3]: 124 arbitrary optical density units
B3: antibody 29E7.35 (antibody, V domains shown)
VH: B1 VH with D1A, Q16H, A30T, F54Y, I68F, S98T, A100K, R101T, Y103F
VL: B1 VL with L3V, I29L, R31H, T39H, F94S, G96S, S97A, S105G
